Measured values taken from publication PMC13354579 (EMBO Reports, 2026).

Molecular target: T1, RAD23A^UBL (human, UniProt P54725 1-84)
T1 construct: RAD23A, human, N-terminal ubiquitin-like domain, residues 1-84; The limits 1-84 are stated for the crystallised construct; also called UBL domain of RAD23A; RAD23A (1–84); source: E. coli (Rosetta2(DE3) for crystallisation), purified via GST tag and SEC
T1 sequence (looked up): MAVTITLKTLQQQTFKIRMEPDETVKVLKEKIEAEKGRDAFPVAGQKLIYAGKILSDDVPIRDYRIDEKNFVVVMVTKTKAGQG
Test: ITC; MicroCal PEAQ-ITC, 25 °C, 50 mM Tris-HCl pH 7.5, 150 mM NaCl, 250 µM TCEP; DUB in the syringe titrated into K48-linked polyUb in the cell, in other experiments the scarcest species in the cell; n = 2, mean ± SD
Settings: both partners purified

Kd: 3.5 µM
B1: MINDY3^EF-hand (domain or fragment, human, UniProt Q9H8M7 297-370, looked up)
chain: ALVAPEAPSEQARRVFQTYDPEDNGFIPDSLLEDVMKALDLVSDPEYINLMKNKLDPEGLGIILLGPFLQEFFP
notes: MINDY3, human, EF-hand domain, residues 297-370; The limits 297-370 are stated for the crystallised construct; also called EF-hand domain of MINDY3; MINDY3 (297–370); source: E. coli (Rosetta2(DE3) for crystallisation), purified via GST tag and SEC
